In publication PMC10491584, “Structural convergence endows nuclear transport receptor Kap114p with a transcriptional repressor function toward TATA-binding protein” (Nature Communications, 2023):
Several values for one entry are separate records, joined by “and”; a condition that tells them apart may be missing. Equal entries are not always repeated.

T1: Kap114pΔ(932-941) (S. cerevisiae, UniProt P53067 1-1004, Δ(932-941))
T1 construct: also called GST-Kap114p (Δ932-941); source: E. coli Rosetta, purified (GST resin, MonoQ, Superdex 200)
T1 sequence (looked up): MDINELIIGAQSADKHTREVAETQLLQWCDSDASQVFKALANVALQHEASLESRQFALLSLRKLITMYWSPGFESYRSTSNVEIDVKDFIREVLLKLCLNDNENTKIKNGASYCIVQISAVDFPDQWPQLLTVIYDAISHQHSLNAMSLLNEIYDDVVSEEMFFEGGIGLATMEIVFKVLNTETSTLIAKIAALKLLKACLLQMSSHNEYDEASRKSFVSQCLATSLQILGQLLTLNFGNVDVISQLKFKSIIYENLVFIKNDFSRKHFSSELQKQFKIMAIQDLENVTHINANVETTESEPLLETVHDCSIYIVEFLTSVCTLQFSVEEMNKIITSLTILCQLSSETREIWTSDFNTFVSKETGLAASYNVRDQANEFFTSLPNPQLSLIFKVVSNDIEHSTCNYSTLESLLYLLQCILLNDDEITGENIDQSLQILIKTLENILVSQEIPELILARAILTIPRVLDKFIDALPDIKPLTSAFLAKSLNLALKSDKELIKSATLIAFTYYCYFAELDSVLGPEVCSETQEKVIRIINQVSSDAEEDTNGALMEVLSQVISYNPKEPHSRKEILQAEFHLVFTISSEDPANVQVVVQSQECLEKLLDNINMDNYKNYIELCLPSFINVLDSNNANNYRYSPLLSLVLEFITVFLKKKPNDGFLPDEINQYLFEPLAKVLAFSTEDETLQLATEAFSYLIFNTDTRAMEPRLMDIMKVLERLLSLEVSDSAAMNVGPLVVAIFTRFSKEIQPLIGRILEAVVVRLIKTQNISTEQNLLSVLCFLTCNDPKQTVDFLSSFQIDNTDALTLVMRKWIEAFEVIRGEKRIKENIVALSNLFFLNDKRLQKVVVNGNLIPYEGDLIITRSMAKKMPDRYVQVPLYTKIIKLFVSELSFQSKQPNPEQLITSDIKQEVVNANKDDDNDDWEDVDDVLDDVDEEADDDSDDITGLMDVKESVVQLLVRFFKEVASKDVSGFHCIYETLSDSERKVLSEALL

T2: Kap114pΔ(848-875) (S. cerevisiae, UniProt P53067 1-1004, Δ(848-875))
T2 construct: also called Kap114p(D848-875); source: E. coli (Rosetta strain), purified (GST resin, MonoQ, Superdex 200)
T2 sequence (looked up): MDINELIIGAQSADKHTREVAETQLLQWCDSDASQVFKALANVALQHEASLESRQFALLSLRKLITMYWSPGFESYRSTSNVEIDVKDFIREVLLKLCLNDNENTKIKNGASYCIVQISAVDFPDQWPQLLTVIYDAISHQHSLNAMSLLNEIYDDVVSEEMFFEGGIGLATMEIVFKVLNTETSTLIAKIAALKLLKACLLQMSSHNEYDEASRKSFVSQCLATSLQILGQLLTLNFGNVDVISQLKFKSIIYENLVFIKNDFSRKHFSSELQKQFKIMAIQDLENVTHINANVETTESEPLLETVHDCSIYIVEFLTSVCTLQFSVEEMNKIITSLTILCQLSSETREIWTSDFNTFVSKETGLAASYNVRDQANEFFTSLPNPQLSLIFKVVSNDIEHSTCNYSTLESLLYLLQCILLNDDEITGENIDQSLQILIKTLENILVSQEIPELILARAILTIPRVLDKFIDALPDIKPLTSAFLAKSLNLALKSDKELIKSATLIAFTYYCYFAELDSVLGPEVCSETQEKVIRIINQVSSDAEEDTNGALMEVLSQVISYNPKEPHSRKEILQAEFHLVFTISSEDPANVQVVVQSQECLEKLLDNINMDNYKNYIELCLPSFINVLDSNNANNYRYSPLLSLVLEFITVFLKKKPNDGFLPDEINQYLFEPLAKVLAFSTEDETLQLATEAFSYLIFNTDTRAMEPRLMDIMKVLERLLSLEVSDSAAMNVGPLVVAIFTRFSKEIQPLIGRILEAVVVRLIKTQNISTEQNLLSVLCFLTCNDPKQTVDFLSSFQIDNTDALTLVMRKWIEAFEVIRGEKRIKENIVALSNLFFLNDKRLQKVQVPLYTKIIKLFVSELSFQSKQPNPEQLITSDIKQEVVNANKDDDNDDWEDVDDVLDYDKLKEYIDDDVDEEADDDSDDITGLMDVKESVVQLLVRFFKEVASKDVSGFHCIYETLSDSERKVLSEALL


How the values were obtained:
Kap114pΔ(932-941) = target: T1, Kap114pΔ(932-941); test: ITC; MicroCal iTC200, 25 °C, 20 mM HEPES pH 7.4, 150 mM NaCl; low concentration: 25 µM wild type or mutant Kap114p in the sample cell, 250 µM wild type or mutant yTBPC in the syringe; triplicate; conditions: both partners purified
Kap114pΔ(848-875) = target: T2, Kap114pΔ(848-875); test: ITC; Kap114p (wild type or mutant) 50 uM in the sample cell, partner 500 uM in the syringe; 25 °C; 20 mM HEPES pH 7.4, 150 mM NaCl; triplicate; conditions: both partners purified

Kd (Kap114pΔ(932-941))	Ka (Kap114pΔ(848-875))	Kd (Kap114pΔ(848-875))	Binder
79.9 nM			yTBP^C wild type (core domain of yeast TATA-box binding protein, a.a. 61-240) (domain or fragment, S. cerevisiae, UniProt P13393 61-240, looked up, modified pET28a, 6xHis tag followed by a PreScission site; also called yTBPC WT; His-yTBP (61-240); source: E. coli Rosetta, purified (Ni-NTA, HiTrap SP, Superdex 75); not shown: His6, N-terminal, cleaved) SGIVPTLQNIVATVTLGCRLDLKTVALHARNAEYNPKRFAAVIMRIREPKTTALIFASGKMVVTGAKSEDDSKLASRKYARIIQKIGFAAKFTDFKIQNIVGSCDVKFPIRLEGLAFSHGTFSSYEPELFPGLIYRMVKPKIVLLIFVSGKIVLTGAKQREEIYQAFEAIYPVLSEFRKM
	4.16e+08 M⁻¹ and 7.85e+08 M⁻¹ and 6.96e+08 M⁻¹	1.7 nM	core domain of yTBP (a.a. 61-240) (domain or fragment, S. cerevisiae, UniProt P13393 61-240, looked up, 61-240; also called yTBP^C; yTBPc; source: E. coli (Rosetta strain), purified (Ni-NTA, HiTrap SP, Superdex 75); not shown: 6xHis, N-terminal, cleaved) SGIVPTLQNIVATVTLGCRLDLKTVALHARNAEYNPKRFAAVIMRIREPKTTALIFASGKMVVTGAKSEDDSKLASRKYARIIQKIGFAAKFTDFKIQNIVGSCDVKFPIRLEGLAFSHGTFSSYEPELFPGLIYRMVKPKIVLLIFVSGKIVLTGAKQREEIYQAFEAIYPVLSEFRKM
